Here are results for 7 molecules from patent US20230118024A1 (Chugai, published 2023).

Test [1] deals with T1, HLA-DQ2.5/33mer gliadin peptide complex on Ba/F3 cells (human; wheat).
T1 construct: also called Ba/F3-HLA-DQ2.5/33mer gliadin peptide; HLA-DQ2.5/gliadin peptide complex
Put plainly: FACS. In general terms: In flow cytometry, cells or beads pass a laser one at a time.

Test [2] deals with T2, HLA-DQ2.5/CLIP peptide complex on Ba/F3 cells (human).
T2 construct: also called Ba/F3-HLA-DQ2.5/CLIP peptide
Put plainly: FACS.

Test [3] concerns the target T3, HLA-DQ2.5/alpha 1 gliadin peptide complex on Ba/F3 cells (human; wheat).
T3 construct: also called Ba/F3-HLA-DQ2.5/alpha 1 gliadin peptide
Put plainly: FACS.

Test [4] addresses T4, HLA-DQ2.5/alpha 1b gliadin peptide complex on Ba/F3 cells (human; wheat).
T4 construct: also called Ba/F3-HLA-DQ2.5/alpha 1b gliadin peptide
The test can be described thus: FACS.

In test [5] the target is T5, HLA-DQ2.5/alpha 2 gliadin peptide complex on Ba/F3 cells (human; wheat).
T5 construct: also called Ba/F3-HLA-DQ2.5/alpha 2 gliadin peptide
Put plainly: FACS.

Test [6] concerns the target T6, HLA-DQ2.5/omega 1 gliadin peptide complex on Ba/F3 cells (human; wheat).
T6 construct: also called Ba/F3-HLA-DQ2.5/omega 1 gliadin peptide
The test can be described thus: FACS.

The target of test [7] is T7, HLA-DQ2.5/omega 2 gliadin peptide complex on Ba/F3 cells (human; wheat).
T7 construct: also called Ba/F3-HLA-DQ2.5/omega 2 gliadin peptide
Put plainly: FACS.

Test [8] concerns the target T8, HLA-DQ2.5/secalin 1 peptide complex on Ba/F3 cells (human; rye).
T8 construct: also called Ba/F3-HLA-DQ2.5/secalin 1 peptide
Put plainly: FACS.

Test [9] deals with T9, HLA-DQ2.5/secalin 2 peptide complex on Ba/F3 cells (human; rye).
T9 construct: also called Ba/F3-HLA-DQ2.5/secalin 2 peptide
Put plainly: FACS.

Test [10] deals with T1, HLA-DQ2.5/33mer gliadin peptide complex …. The test can be described thus: cell-based or functional assay.
Test [11] has as its target T10, recombinant HLA-DQ2.5/33mer gliadin peptide complex (human; wheat).
T10 construct: also called soluble HLA-DQ2.5/33mer gliadin peptide complex
T10 alpha: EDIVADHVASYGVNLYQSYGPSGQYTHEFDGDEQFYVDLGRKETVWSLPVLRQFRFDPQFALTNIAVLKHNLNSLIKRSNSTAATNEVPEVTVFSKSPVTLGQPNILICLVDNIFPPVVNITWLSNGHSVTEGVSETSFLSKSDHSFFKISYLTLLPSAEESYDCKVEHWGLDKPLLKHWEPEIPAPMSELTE
T10 beta: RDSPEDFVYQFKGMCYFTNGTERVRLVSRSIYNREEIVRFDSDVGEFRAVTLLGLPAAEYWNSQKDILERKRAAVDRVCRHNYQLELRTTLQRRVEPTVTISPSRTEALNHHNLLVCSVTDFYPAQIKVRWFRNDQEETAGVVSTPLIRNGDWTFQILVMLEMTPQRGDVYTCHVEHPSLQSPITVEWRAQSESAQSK
T10 peptide: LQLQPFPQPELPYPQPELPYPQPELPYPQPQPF
The test can be described thus: SPR, Ab captured, 37 C, pH 7.4. (Surface plasmon resonance follows binding to a sensor surface in real time, without labels.)

B1: DQN0303hh (antibody, human IgG1, kappa, V domains shown)
VH: QQHLEESGGGLVKPGGTLTLTCTASGIDFSSYYYMCWVRQAPGKGLEWIACIYTGDGSTYYASWVNGRFTISRSTSLNTVTLQLNGLAAADTATYFCARSYGASSAIGYFNLWGPGTLVTVSS
VL: DVVMTQTPSSKSAAVGGTVTIKCQASQNIYSNLAWYQQKPGQRPKLLIYEASTLASGVPSRFRGSGSGTEFTLTISDLECDDAATYYCQNYYYTSSNDFYTFGGGTKVEIKR
notes: also called DQN0303Lh
As to B1, the “FIG. 30 FACS value (IC17=0, DQN0139bb=100)” value (shortened to “FIG. 30 FACS value”) worked out at 72.8 in test [1]; 80 in test [2]; 51.4 in test [3]; 41.5 in test [4]; 62.6 in test [5]; 56.2 in test [6]. Also, the “FIG. 30 FACS value” value in test [7] is 91.7; in test [8], 64.5; in [9], 59.4.

B2: DQN0344xx (antibody, human IgG1, kappa, V domains shown)
VH: QSLEESGGGLVKPGGTLTLTCTASGFSFSSSYWMCWVRQAPGKGLEWVACVYGGSDTTYYASWTKGRFTISKGSSTTVALQVTSLTAADTATYFCARDPLNYYYYGELNLWGPGTLVTVSS
VL: AVVLTQTASPVSAAVGGTVTIRCQATENIYSGLAWYQQKPGQPPKVLIYYVSTLASGVPSRFKGSGSGTEYTLTISGVQCDDAATYYCQTYHDISNVTFGGGTKVEIKR
notes: also called DQN0344Hx; DQN0344Lx
Consider B2, for which the “FIG. 30 FACS value” value in [1] was found to be 106; in test [3], 89.7; in [4], 75.3; in test [5], 81.9; in [6], 68.8; in test [7], 3.7. For the same molecule, the results for the “FIG. 30 FACS value” value in test [8] and in test [9] were 73.9 and 60.6, respectively. In test [10], the “IC50 (read off the curve)” value is about 0.3 µg/mL.

B3: DQN0223hh (antibody, human IgG1, kappa, V domains shown)
VH: QQQLEESGGGLVKPGGTLTLTCKASRIDFSTYYYICWVRQSPWKGLEWIACIYSGDGYTYYPSWAKGRFSISKTSSTTVTLQVTSLTAADTATYFCARSYGGSSASAYFTLWGPGTQVTVSS
VL: AVVLTQTASPVSAPVGGTVTIKCQASQSIGSNLGWYQQKPGQPPKLLIYGASALASGVPSRFKGSGSGTQFTLTINDLECADAATYYCQGYYYSSSAEWHSFGGGTKVEIKR
notes: also called DQN0223Lh
As to B3, the “FIG. 30 FACS value” value in test [1] is 59.5; in test [2], 60.2; in test [3], 27.9; in test [4], 36; in test [5] it was 46.8; in [6], 46. Further, the “FIG. 30 FACS value” value worked out at 59 in test [7], 47.6 in test [8] and 48.4 in [9].

B4: DQN0356bb (antibody, human IgG1, kappa, V domains shown)
VH: QEQLVESGGGLVKPEGSLTLTCTASGFSFSSDYSVCWVRQAPGKGLEWIGCIYTGSDITYYASWAKGRFTISKTSSTTVTLQMTSLTAADTATWFCARSWNGYGGYADLWGPGTLVTVSS
VL: AYDMAQTPASVEVAVGGTVTIKCQASQSIDNYLAWYQQKPGQPPKLLIYWASTLASGVSSRFKGSGSGTQFSLTISDLECADAATYYCQQYYSNSNVVNTFGGGTKVEIKR
notes: also called DQN0356Hb; DQN0356Lb
For B4, the “FIG. 30 FACS value” value in test [1] came out at 91.1; in test [2], 98.3; in test [3] it was 94.9; in test [4], 88; in test [5], 85.6; in test [6] it was 76. For the same molecule, the “FIG. 30 FACS value” value amounted to 68.8 in test [7], 74.5 in [8] and 77.8 in [9].

B5: DQN0235ee (antibody, human IgG1, kappa, V domains shown)
VH: QQQLEESGGGLVKPGGTLTLTCKAGIDFSTYYYMCWVRQAPGKRPEWIACIFDGDGSTYYASWVNGRFTISKASSTTVTLRMTSLTAADTATYFCARSAGGSSSFGYFNLWGPGTLVTVSS
VL: AYDMTQTPSSVSAAVGGTVTIKCQASQSISSSYLAWYHQKPGQSPKLLIYSASTLASGVPSRFKGSGSGTEFTLTISDLACADAATYYCQSYYYFSSNAWHTFGGGTKVEIKR
notes: also called DQN0235He; DQN0235Le
For B5, the “FIG. 30 FACS value” value is 70.1 in [1]; 82 in test [2]; 52.3 in [3]; 81.3 in test [5]; 75.2 in [6]; 78.8 in test [7]. The “FIG. 30 FACS value” value in test [8] was 73.4; in test [9], 71.1.

B6: DQN0370hh (antibody, human IgG1, kappa, V domains shown)
VH: QSLEESGGGLVKPGGPLTLTCTASGFSFSSAYYMCWVRQAPGKGLEWIACIYVGSGSTYYTSWAKGRFTISKVSSTTMTLQMTSLTAADTATYFCARDPLIYYYYGELNLWGPGTLVTVSS
VL: AVVLTQTASPVSAPVGGTVTIKCQASEDIYSNLAWYQQKPGQRPKVLIYSASTLASGVSSRFKGSRSGTEYTLSITDLGCADAATYYCQAYYDIGGVTFGGGTKVEIKR
notes: also called DQN0370Lh
Consider B6, for which the “FIG. 30 FACS value” value in [1] came to 107; in [2] it was 1; in [3], 91.2; in test [4], 79.2; in test [5], 83.7; in [6] it was 73.7. Moreover, the “FIG. 30 FACS value” value was 65.8 in test [7], 79.2 in [8] and 68.1 in test [9]. The “IC50 (read off the curve)” value in test [10] is about 0.3 µg/mL. Besides, the Kd in test [11] is 4.47 nM.

B7: DQN0333hh (antibody, human IgG1, kappa, V domains shown)
VH: QSVEESGGRLVMPGGSLTLTCTASGFSLSSYYMNWVRQAPGKGLEWIGVIYSTDITDYATWATGRFTISKTSTTVDLKMTSLTAADTATYFCARELSPTTSGYIAYLWGPGTLVTVSS
VL: AYDMTQTPASVEVAVGGTVTIKCQASQSISSYLAWYQQKPGQPPKLLIYSASTLASGVPSRFKGSGSGTQFTLTVIDVQCDDAATYYCQQTYSGKNVINTFGGGTKVEIKR
notes: also called DQN0333Lh
For the molecule B7, the “FIG. 30 FACS value” value in test [1] came to 106; in test [2], 116; in test [4], 108; in test [5], 118; in [6], 106; in test [7], 128. Moreover, the “FIG. 30 FACS value” value in test [8] was 110; in test [9] it was 106.

The Kd is the equilibrium constant for the complex coming apart.
